Molecular target: acetylcholine receptor
Experiment: SPR, peptide at 10 uM

Binder	Binding affinity
KYENRK [6mer-2-1134]	30 RU
KNCMRK [6mer-2-1128]	36 RU
RKTWRK [6mer-2-1124]	39 RU
RTDFKR [6mer-2-1137]	22 RU
KMEVKK [6mer-2-1116]	31 RU
RITGKR [6mer-2-1129]	42 RU
KCTVRK [6mer-2-1119]	39 RU
RDAFKK [6mer-2-1125]	30 RU
KCTGKR [6mer-2-1141]	32 RU
RTNAKR [6mer-2-1131]	26 RU
KMKMKK [6mer-2-1133]	22 RU
RPWERR [6mer-2-1132]	32 RU
KKAMKR [6mer-2-1142]	30 RU
REDEKK [6mer-2-1111]	23 RU
KMNKKR [6mer-2-1140]	29 RU
RDMMKK [6mer-2-1120]	28 RU

Binder	Binding affinity
KMKKKR [6mer-2-1136]	36 RU
RKKFRK [6mer-2-1114]	34 RU
RANWKR [6mer-2-1135]	29 RU
RASWRK [6mer-2-1112]	26 RU
RITARR [6mer-2-1123]	36 RU
RFDGRR [6mer-2-1118]	42 RU
RMHVKR [6mer-2-1117]	21 RU
RHSFRK [6mer-2-1130]	29 RU
KPNFRK [6mer-2-1113]	43 RU
KYSPRK [6mer-2-1115]	39 RU
KPSKRR [6mer-2-1121]	21 RU
KAAEKK [6mer-2-1127]	42 RU
RCNFKK [6mer-2-1122]	22 RU
KAKAKK [6mer-2-1139]	39 RU
KAHFKK [6mer-2-1138]	42 RU
RHEVRR [6mer-2-1126]	23 RU

Further lines, results first:

Binding affinity	Binder
42 RU	KTDVKK [6mer-2-1150]
40 RU	KTAPKK [6mer-2-1189]
27 RU	KEKFRR [6mer-2-1186]
34 RU	KACVKK [6mer-2-1179]
23 RU	RITVKK [6mer-2-1160]
37 RU	RDNIRK [6mer-2-1158]
35 RU	KMNARR [6mer-2-1156]
25 RU	KFTIRR [6mer-2-1170]
42 RU	KACIKK [6mer-2-1143]
36 RU	RTADRK [6mer-2-1187]
38 RU	KCCNKK [6mer-2-1173]
37 RU	RNTDRK [6mer-2-1157]
22 RU	RAPARR [6mer-2-1188]
43 RU	RYTEKK [6mer-2-1176]
34 RU	KMSERR [6mer-2-1162]
25 RU	RNTNRK [6mer-2-1155]
40 RU	KMPARR [6mer-2-1171]
35 RU	KFMKKK [6mer-2-1147]
22 RU	KFWVRR [6mer-2-1184]
40 RU	KDMGKR [6mer-2-1159]
41 RU	RASEKR [6mer-2-1177]
37 RU	RNWAKK [6mer-2-1152]
27 RU	RHSFKK [6mer-2-1161]
32 RU	KACIRR [6mer-2-1190]

Binding affinity	Binder
23 RU	RIKNRR [6mer-2-1145]
27 RU	KHKPKR [6mer-2-1153]
21 RU	KIDFRR [6mer-2-1149]
36 RU	KNCERR [6mer-2-1172]
26 RU	KCSIKK [6mer-2-1166]
34 RU	KEKGKR [6mer-2-1148]
30 RU	RYEARR [6mer-2-1154]
37 RU	KCHFKK [6mer-2-1163]
42 RU	RIDAKK [6mer-2-1185]
21 RU	RCEPRK [6mer-2-1174]
39 RU	RFEDRK [6mer-2-1144]
34 RU	RAANRR [6mer-2-1180]
34 RU	RYSKRR [6mer-2-1175]
30 RU	RHNDKR [6mer-2-1182]
33 RU	RYNHKR [6mer-2-1164]
43 RU	RYPVRK [6mer-2-1151]
32 RU	KACWKR [6mer-2-1181]
32 RU	REWGRK [6mer-2-1146]
30 RU	KTTVRK [6mer-2-1178]
21 RU	KICERK [6mer-2-1169]
27 RU	RCAPKR [6mer-2-1167]
41 RU	KMKPKK [6mer-2-1168]
30 RU	RIKAKK [6mer-2-1165]
35 RU	RENNRK [6mer-2-1183]

— US20250011363A1, “OPTIMIZED SHORTENED PEPTIDE THAT BINDS TO ACETYLCHOLINE RECEPTOR, AND USE THEREOF” (SKINMED CO., LTD., priority 2021, published 2025)
